According to US20120165265A1, “Calcium Signaling Modulators Involving STIM and ORAI Proteins” (priority 2009, published 2012):

Experiments:
[1] = molecular target: T1, CRAC channels (Homo sapiens, UniProt Q96D31); test: [Ca2+]i imaging in HEK 293 cells expressing STIM1 fragment and Orai1; format: cell-based; conditions: for effect on CAD-induced sustained elevation of [Ca2+]i: HEK 293 cells expressing Orai1 and CAD
T1 construct: expressed in transfected cells; host or cells: HEK 293
Protocol: Ca^2+ Imaging. For FIG. 2, cells were loaded at 37° C. in DMEM with 1 μM fura-2/AM for 30 min. Ratiometric Ca2+ imaging was performed at 340 and 380 nm in 2 mM Ca2+ Ringer's solution with a Nikon Eclipse 2000-U inverted microscope equipped with a fluorescent arc lamp, excitation filter wheel, and a Hamamatsu Orca CCD camera. Images were collected using Openlab (Improvision) and analyzed using Igor Pro.
To determine if CAD activates store operated Ca^2+ influx in cells, we measured [Ca^2+]i in HEK 293 cells expressing CAD and Orai1.

[2] = molecular target: T2, Orai1 (Homo sapiens, UniProt Q96D31); test: Whole-cell patch clamp recording of ICRAC in transfected HEK 293 cells; format: cell-based; parameters: expressed in transfected cells; host or cells: HEK 293
T2 sequence (Q96D31 whole entry): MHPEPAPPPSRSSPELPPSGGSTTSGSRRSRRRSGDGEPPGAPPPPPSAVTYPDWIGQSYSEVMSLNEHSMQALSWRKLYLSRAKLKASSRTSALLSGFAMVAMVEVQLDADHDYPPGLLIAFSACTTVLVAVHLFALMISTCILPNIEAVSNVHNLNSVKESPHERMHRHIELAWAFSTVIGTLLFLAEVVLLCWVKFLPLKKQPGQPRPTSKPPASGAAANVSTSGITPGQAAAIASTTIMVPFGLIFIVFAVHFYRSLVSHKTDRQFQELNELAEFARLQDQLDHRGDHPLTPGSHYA
Protocol: Electrophysiology. HEK 293 cells were transfected 8-24 h prior to electrophysiology experiments with STIM1- and Orai1-derived constructs in a 1:1 mass ratio using Lipofectamine 2000. […] ICRAC in cells cultured without LaCl3 was similar to that in cells cultured with LaCl3, but most cells without LaCl3 died soon after break-in.
Currents were recorded using standard whole-cell patch clamp techniques (Prakriya and Lewis, 2001). Pipettes of resistance 2-5 MΩ were filled with an internal solution containing (in mM) 150 Cs aspartate, 8 MgCl2, 10 EGTA, and 10 HEPES (pH 7.2 with CsOH). Currents were sampled at 5 kHz and filtered at 2 kHz, and all voltages were corrected for the junction potential of the pipette solution relative to Ringer's in the bath (−13 mV).
Patch-clamp Experiments. Pipette-membrane seals were formed in 2 mM Ca^2+ Ringer's solution. After break-in to the whole-cell configuration, voltage stimuli consisting of a 100-ms step to −100 mV followed by a 100-ms ramp from −100 to +100 mV were delivered every 5 s from the holding potential of +30 mV. After the currents reached a steady level (˜300 s for wild-type STIM1), the external solution was changed via a multibarrel local perfusion pipette to a high-Ca^2+ Ringer's containing (in mM) 130 NaCl, 4.5 KCl, 20 CaCl2, 1 MgCl2, 10 D-glucose, and 5 HEPES (pH 7.4 with NaOH). All data were leak-corrected using the current elicited in 20 mM Ca^2+ Ringer's+10 μM LaCl3 at the end of the each experiment. LaCl3 and 2-APB were added directly to parent solutions on the day of the experiment from 10 mM and 100 mM stocks in H2O and DMSO, respectively.
As a definitive test for CRAC channel activation, we conducted whole-cell patch clamp recordings from HEK 293 cells transiently transfected with myc-Orai1 and either YFP-STIM1 or YFP-CAD. In cells expressing full length YFP-STIM1, ICRAC appeared over several minutes following break-in, consistent with the typical slow activation seen in response to passive store depletion (FIG. 2D). […] In contrast, inward current was present from the moment of break-in in cells expressing YFP-CAD (FIG. 2E). This current was identified as ICRAC based on its dependence on extracellular Ca^2+, inward rectification, sequential enhancement and inhibition by 2-APB, and inhibition by La^3+ (FIG. 2E and FIG. 10 C, D). ICRAC was not observed at break-in in HEK 293 cells transfected with YFP or YFP-CAD in the absence of Orai1 (FIG. 2F), consistent with the low level of endogenous STIM1 and Orai1 in these cells. […] Inactivation was restored by addition of STIM1 residues carboxy-terminal to CAD.

[3] = molecular target: T3, CAD (Homo sapiens, UniProt Q13586); test: Yeast split ubiquitin assay, Orai1 fragments with CAD; format: binding; conditions: NubG-Orai1 fragment with CAD-Cub-LV in yeast
T3 construct: For STIM1 342-448 (CAD); expressed in transfected cells; host or cells: HEK 293T
T3 sequence (Q13586 342-448): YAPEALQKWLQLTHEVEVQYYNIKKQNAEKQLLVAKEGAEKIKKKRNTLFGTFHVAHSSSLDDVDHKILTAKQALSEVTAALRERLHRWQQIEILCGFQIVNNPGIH
Protocol: Split-Ubiquitin Yeast Two Hybrid Assay. Screening was performed according to the manufacturer's instructions (Dualsystems Biotech). Transformed yeast were selected on media lacking Trp and Leu (-TL). Interaction was observed by cell growth on plates lacking Trp, Leu, and His (TLH) in the presence of 3-aminotriazole (3-AT). Protein interactions were also assessed by measuring lacZ activity using the chromogenic substrate X-gal (5-bromo-4-chloro-3-indolyl-β-galactopyranoside).
Split-Ubiquitin Yeast Two Hybrid Assay. To generate fusion proteins with the N-terminal half of ubiquitin (Nub), full-length or fragments of Orai1 were amplified by PCR and cloned into the pDL2-Nubx vector (Dualsystems Biotech). The Nub sequence in the pDL2-Nubx plasmid contains a point mutation (NubG) that abolishes the spontaneous association of Nub to the C-terminal half of ubiquitin (Cub). The CAD was subcloned into the pAMBV4 vector, which contains Cub fused to a chimeric transcription factor consisting of the DNA binding domain from LexA and the VP16 transactivation domain.
(§1) STIM1-CAD BINDS TO THE N- AND C-TERMINI OF ORAI1. To identify regions of Orai1 important for activation by CAD, we characterized the binding of CAD to Orai1 using two approaches. First we expressed fusions of NubG with the N-terminus, the II-III cytoplasmic loop and the C-terminus of Orai1 in yeast together with different CAD-Cub-LV constructs. […] Based on the level of b-gal activity, CAD appears to interact with the Orai1 C-terminus with a higher affinity than with the N-terminus. We next expressed fusions of YFP with the N-terminus, the II-III loop and the C-terminus of Orai1 in HEK 293T cells together with Flag-myc-CAD.
(§2) To explore the interaction between the N-terminus of Orai1 and CAD in more detail we mapped the subregion within the N-terminus of Orai1 that is responsible for CAD binding, using both the split ubiquitin and HEK 293T co-immunoprecipitation assays.

[4] = molecular target: T3, CAD; test: Co-immunoprecipitation of Orai1 fragments with CAD in HEK 293T cells; format: binding; conditions: YFP-tagged Orai1 fragment with Flag-myc-CAD in HEK 293T cells
Protocol: (§3) Immunoprecipitation and Immunoblot Analysis. Transfected HEK 293T cells (12-24 h) were washed with PBS and lysed in 50 mM Tris-HCl pH 7.5, 150 mM NaCl, 1% Triton X-100, and protease inhibitors. Lysates were spun at 12,000 rpm for 10 min, and the supernatant was incubated with anti-Flag M2 agarose beads (Sigma), or anti-myc or -HA antibody followed by IgG agarose beads (Pierce). Lysates and immunoprecipitates were subjected to SDS-PAGE, probed with HRP-conjugated secondary antibody and detected by enhanced chemiluminescence (Pierce).
as §1, §2

[5] = molecular target: T2, Orai1; test: Co-immunoprecipitation with Orai1 in HEK 293T cells; format: binding; parameters: expressed in transfected cells; host or cells: HEK 293; conditions: 150 mM salt, 1% Triton X-100
Protocol: as §3
CAD Associates with Orai1 in vivo and in vitro. Because cytosolic CAD is a potent activator of Orai1 channels and is not associated with the ER, we hypothesized that CAD binds to Orai1. To test this idea, we first expressed YFP-CAD with or without myc-Orai1 in HEK 293 cells and examined its intracellular localization. […] To provide additional evidence that CAD and Orai1 are part of the same protein complex we expressed Flag-tagged CAD and GFP-tagged Orai1 in HEK 293T cells and immunoprecipitated CAD with anti-Flag antibodies. GFP-myc-Orai1 was detected in the immunoprecipitates from cells co-expressing CAD and Orai1 but not from cells expressing CAD or Orai1 alone (FIG. 3B).
Thus, CAD and Orai1 form a protein complex in mammalian cells.

T1 sequence (Q96D31 whole entry, the tested form may be a part): as the sequence (Q96D31 whole entry) above

Row | interaction with CAD (b-gal, growth without histidine) [3] | co-immunoprecipitation with CAD [4] | Compound | also measured
1 | – | – | [Cl][La]([Cl])[Cl] [La^3+, LaCl3, reference compound] | effect on CAD-induced sustained elevation of [Ca2+]i ([1]; 10 μM La3+): blocked; effect on CAD-supported current ([2]; YFP-CAD+myc-Orai1 cell, 10 μM LaCl3, 20 mM Ca2+o): rapid inhibition of current
2 | interacted strongly | co-immunoprecipitated | Orai148-91: Orai1 N-terminal fragment aa 48-91, SEQ ID NO:3 | co-immunoprecipitation with CAD ([4]; listed as Orai1-NT(48-91)): co-immunoprecipitates
3 | weaker interaction | only very weakly | N-terminus of Orai1 (aa 1-91): Orai1 N-terminal fragment aa 1-91, SEQ ID NO:2 | co-immunoprecipitation with CAD ([4]; listed as N-terminus): interacts
4 | – | – | NCCOB(c1ccccc1)c1ccccc1 [2-APB, 2-Aminoethoxydiphenylborate, reference compound] | effect on CAD-induced sustained elevation of [Ca2+]i ([1]; 100 μM 2-APB): blocked; effect on constitutive CAD-dependent ICRAC ([2]; YFP-CAD+myc-Orai1 HEK 293 cell, 50 μM 2-APB, 20 mM Ca2+): increase in CAD-dependent current followed by a slower inhibition
5 | lack of interaction | not | II-III loop of Orai1: Orai1 II-III cytoplasmic loop aa 142-177, SEQ ID NO:5 | –
6 | interacted strongly | – | Orai168-91: Orai1 fragment aa 68-91 | –
7 | – | – | YFP-CT-STIM1: YFP-tagged CT-STIM1 (236-685) [reference compound] | constitutive ICRAC ([2]; HEK 293 cells cotransfected with construct and myc-Orai1, from break-in): failed to activate constitutive ICRAC
8 | strong interaction | interacts | C-terminus of Orai1: Orai1 C-terminal fragment, SEQ ID NO:6 (HFYRSLVSHKTDRQFQELNELAEFARLQDQLDHRGDHPLTPGSHYA; H. sapiens) | –
9 | not | – | Orai148-70: Orai1 fragment aa 48-70 (SAVTYPDWIGQSYSEVMSLNEHS; UniProt Q96D31 48-70, looked up, fragment) | –
10 | – | – | CAD (342-440): CAD peptide with the last 8 aa deleted | [Ca2+]i / CRAC channel activation ([1]; HEK 293 cells coexpressing construct and Orai1, no store depletion): eliminates its ability to activate CRAC channels; co-immunoprecipitation with Orai1 [5]: retained the ability to bind to Orai1
